Reference: US4254225A, “Novel neutral glucoamylase and method for its production” (priority 1978, dated 1981)

Assays:
[1] = Substrate specificity: reaction rate on various substrates at 1% concentration; format: biochemical
Description: ^a The enzymatic activities of each glucoamylase were determined with
the substrates present at a 1% concentration; each enzyme' s activity in
relation to dextrin was assigned the value 100, and the activities on the
other substrates are presented as relative
(§1) A 0.5-ml aliquot of a suitably diluted enzyme solution was added to 0.5 ml of a 2% solution of a spray-dried maltodextrin (D.E. about 10) in 0.1 M acetate buffer solution (pH 6.0) and this was incubated at 60° C. for precisely 10 minutes. The enzyme reaction was then stopped by heating the mixture for 5 minutes in a boiling water bath. The amount of dextrose produced was determined by the glucose oxidase method. The amount of enzyme producing 1 micromole of dextrose per minute was defined as 1 unit.

[2] = Relationship between reaction pH and enzymatic activity (optimum pH); format: biochemical; settings: values marked with an asterisk (own)
Description: as §1

[3] = format: biochemical; settings: values marked with an asterisk (own)
[4] = Saccharification of about 30% starch hydrolyzate to dextrose; format: biochemical; settings: same substrate concentration as Example 3; pH 4.3 at 60° C.

B1: Aspergillus niger Glucoamylase: conventional glucoamylase from Aspergillus niger, available from Enzyme Development Corporation (protein, UniProt P69328 25-640, looked up)
Glucoamylase: ATLDSWLSNEATVARTAILNNIGADGAWVSGADSGIVVASPSTDNPDYFYTWTRDSGLVLKTLVDLFRNGDTSLLSTIENYISAQAIVQGISNPSGDLSSGAGLGEPKFNVDETAYTGSWGRPQRDGPALRATAMIGFGQWLLDNGYTSTATDIVWPLVRNDLSYVAQYWNQTGYDLWEEVNGSSFFTIAVQHRALVEGSAFATAVGSSCSWCDSQAPEILCYLQSFWTGSFILANFDSSRSGKDANTLLGSIHTFDPEAACDDSTFQPCSPRALANHKEVVDSFRSIYTLNDGLSDSEAVAVGRYPEDTYYNGNPWFLCTLAAAEQLYDALYQWDKQGSLEVTDVSLDFFKALYSDAATGTYSSSSSTYSSIVDAVKTFADGFVSIVETHAASNGSMSEQYDKSDGEQLSARDLTWSYAALLTANNRRNSVVPASWGETSASSVPGTCAATSAIGTYSSVTVTSWPSIVATGGTTTTATPTGSGSVTSTSKTTATASKTSTSTSSTSCTTPTAVAVTFDLTATTTYGENIYLVGSISQLGDWETSDGIALSADKYTSSDPLWYVTVTLPAGESFEYKFIRIESDDSVEWESDPNREYTVPQACGTSTATVTDTWR
Which “Reaction Rate” value ([1]; substrate Amylpectin, relative to dextrin = 100) does the source give for B1 here?
The value was 113.

What about the “Reaction Rate” value ([1]; substrate Dextrin (D.E. 10), relative, activity on dextrin assigned 100) of the same molecule?
Its value is 100.

What about the “Reaction Rate” value ([1]; substrate Glycogen, relative to dextrin = 100) of the same molecule?
The value was 100.

What about the “Reaction Rate” value ([1]; substrate Maltohexaose, relative to dextrin = 100) of the same molecule?
Its value is 100.

And the “Reaction Rate” value ([1]; substrate Maltose, relative to dextrin = 100)?
The value was 26.

And the “Reaction Rate” value ([1]; substrate Maltotriose, relative to dextrin = 100)?
The value was 12.

And the “Reaction Rate” value ([1]; substrate Panose, relative to dextrin = 100)?
Its value is 47.

And the “Reaction Rate” value ([1]; substrate Pullulan, relative to dextrin = 100)?
The value was 2.

What about the “Reaction Rate” value ([1]; substrate Soluble Starch, relative to dextrin = 100) of the same molecule?
Its value is 95.

And the “Optimum pH” value [2]?
Its value is 4.5.

And the “Optimum Temp.” value [3]?
The value was 70 °C.

And the dextrose yield [4]?
The dextrose yield was 96.5%.
